± gives the uncertainty stated by the source.
Assay: amyloid nucleation score (Sup35N fusion, yeast selection) (log enrichment); library NNK1; higher = more nucleation; inactive = no reads after selection
In short: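 Peptides of 20 random codons fused to Sup35N were expressed in psi-negative yeast, induced 24 hours with 100 μM copper sulfate, then grown 7 days at 30°C on medium lacking adenine and uracil. Input and output plasmid inserts were Illumina-sequenced. Nucleation score is the DiMSum log enrichment of output over input reads, centred on the mode score of non-aggregating sequences, excluding sequences with under 100 input reads. Random libraries had three technical output replicates.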

Substance	amyloid nucleation score
LRVRFKSWDLSITLGVQ	1.26 ± 0.9
TLHVEWSSVIAMLFKMSCGL	-0.785 ± 0.88
NSGRVNTLWFCLSDTMLVTS	inactive
WPSKAQAVFTNTSTLNVSRF	inactive
LRDTFPVLLAILCMNIINNC	-0.14 ± 0.29
YFSLFYCKVSGESTLYFCGH	5.88 ± 0.066
NYHLGCCNISMF	7.856 ± 0.047
AIYVNGCVCCISYLVPILMS	3.61 ± 0.075
LDRSTSSLIMSSCLMYRESS	1.33 ± 0.29
DGGAFAGRS	-1.06 ± 0.81
FWLFSGLCNRFNTGYDFLKS	1.12 ± 0.48
RSWDRYMFGRNRCVDWGR	0.107 ± 0.9
WPCKAFFSSAGLRYGVNLA	-0.833 ± 0.9
YLQGENNWRVVGQRLSTSPA	0.03 ± 0.4
RVLLSSVSDM	-0.766 ± 2.4
GHIDAQWPRFRCHMA	0.147 ± 0.32
LGPYQTCR	1.58 ± 0.72
LSRTSKSPFGGEFLERHIYI	-0.42 ± 1
DFVLIFLRICSCPSHTNFYL	3.45 ± 0.12
VRSCTWCGSEGPGTIPWLGD	0.443 ± 0.39
KFDLYRTWCSSLRFGRYWRV	1.23 ± 0.59
NCVVYDIEYICWNIGGKI	5.71 ± 0.077
KEYNNPRLKLTMRRFAAKS	0.539 ± 0.69
QSVCSTCSRGPSHCAAGSV	0.17 ± 0.31
LIINGD	0.609 ± 1.2
KPKVVNMVEGLRGFCGLLDL	-0.602 ± 0.94

Substance	amyloid nucleation score
FDFCVEIWLRVFLNMWGRLR	0.689 ± 0.33
IKTAFMVMNNGKDVMSRSWG	0.402 ± 0.4
MDKLMSMELLSFLGNRSVHV	inactive
TMSSFDGPSV	-2.58 ± 1.8
MYASWSVF	-0.223 ± 0.34
ICITYL	2.56 ± 0.12
SGYSLASVVILLKAVYCLGW	0.627 ± 0.72
TSSYGCQHINVMCCRLQGDL	7.444 ± 0.074
RSPHVAGYNMKAGSDRSNIT	0.052 ± 0.26
VITIGMFCRIIEGHYVMYLT	0.089 ± 0.47
AMYFTWFVHFGAYRVRSIEK	1.48 ± 0.48
TKQFEPFCLRLSVVMLLLQE	0.034 ± 0.45
VGYEVLSHYDAGIVSLVYLS	0.645 ± 0.53
EYGNGSIKPVGRHWLEGYLH	-0.701 ± 1
GQHSFGAECTVQSCGWGCRW	1.33 ± 0.34
SLYMT	0.192 ± 0.34
IRSLITMVGTGLGPLAR	0.876 ± 0.4
YFAVL	inactive
RRLLISPMTYVSDLASIQGC	0.175 ± 0.26
MVRWLNTSRKFT	1.06 ± 0.73
CSCGLSYGLYFE	0.786 ± 0.92
NLSALLHDHFMGPIDLKFLT	1.8 ± 0.52
HSFGKTFGDCYRRHSYLVNE	-0.437 ± 0.41
LSKGRATVYF	2.06 ± 0.23
YLPIKPFIYANILWGFTVSC	-0.025 ± 1
LICPSLHPRAVGECSSVCWR	0.157 ± 0.19

Substance	amyloid nucleation score
SFYLIPPSCGYISHFGISTG	inactive
WVSMKVVGVKHSGLDWRIL	0.012 ± 0.52
AGCDNMIYMSTWVKWESN	0.197 ± 0.31
SWWLICYYVSWYFSD	-1.69 ± 1.1
RSNPMTVMVSCLDEVVS	-0.536 ± 0.49
WESEFYLGLELERVAGGSGG	-1.03 ± 2.7
NLNSMAFV	0.662 ± 0.56
SRFWKRVHAYTAVISEMYSA	-0.132 ± 0.52
ARTGCHKVYLAAACSYGRFS	0.188 ± 0.34
YGFRQGTTSDNGTFTRIVHM	-0.336 ± 0.5
KTAPGLKCIQIEVWQY	0.035 ± 0.35
WVQFLDMGAVMKIWLVKCFP	-0.485 ± 1.1
GNVLDFCPWLVGLLCHGGGV	0.149 ± 0.35
TKWAVDY	0.347 ± 0.28
KQNSKLFLIFIGNALGQVTV	5.09 ± 0.064
RYNAILAWCSLRKTGVYFLV	1.09 ± 1
FRCLRTRSCLQWAQGLGAEA	0.596 ± 0.47
YGRQG	0.123 ± 0.49
VRFTTIVYPSWFFSAW	0.565 ± 0.45
LGHIILSAFFYRSFNLEVSL	inactive
QMSKPARTLKSVRGPLDLRI	-0.389 ± 0.61
RVVWVVFGWGLIHLGGLLCG	0.146 ± 0.81
LSCKSVVPLSNSWYAIVLRL	1.19 ± 0.29
ICSRTVKFYSSSF	-2.03 ± 2.4
LCCFKSFVSENMN	6.447 ± 0.05
VLSWWTTNPSVMENTCCPWS	2.09 ± 0.32

Substance	amyloid nucleation score
RFNNDMTSLLSGRIAMEYSY	-0.344 ± 0.62
RKGSMWFCRCLVRMRHRALP	-0.295 ± 0.76
SHADVR	-0.027 ± 0.83
PLEMGSHIGRL	-1.54 ± 2.7
GYNKHLGNSGSYVHQNGAQF	1.06 ± 0.39
YSISFSYHGVVCGSGSNRGV	-0.589 ± 0.63
VWFVVGGGE	1.7 ± 0.42
VGCLMWYALCGLE	0.347 ± 0.5
GILDTLKVEVLGSVVHS	1.01 ± 0.59
CTREVLWGCHCNSSASNLFS	-0.202 ± 0.61
LRWMESLRLNARSFKDTLLC	-0.33 ± 1.7
VILLILNYYSHWDVLLK	-0.111 ± 0.4
EKGFVYYTRGYLRDGLGRSQ	-0.222 ± 0.35
YIGECLRKLIRCAHKDCEGY	-1.49 ± 1.2
NQCYYRAGLFRVDLFCLELA	inactive
EVRRFMTPGENESSREVAYF	-0.02 ± 0.45
AIPGGVTGTGWSSM	-0.221 ± 0.51
IGQLHFIEITNMREGHPFLA	0.53 ± 0.63
GRGHREPIVKDAAGRLGSWS	-0.421 ± 0.94
YFWLNTNTLCSYWRMRHWVS	0.524 ± 0.61
VDHISCCVFVMAVHMELALR	-1.07 ± 1.8
RNWREVSYMIQVGW	-0.186 ± 0.29
IASFVEERLSEIPYLATLGL	-0.385 ± 0.46
TMISLAFIIYPLNMAPMYME	1.97 ± 0.45
FDGVRARDALFSGCL	-0.705 ± 0.59
PCTFWAEVRINRWSYYARQR	-0.856 ± 2.4

Substance	amyloid nucleation score
LSAEFGSMLRLLCH	inactive
GNWLSS	-0.082 ± 0.9
VSWWNCLL	-1.28 ± 2.4
MIMMDLHCGVILRALGEHGP	3.34 ± 0.11
MNSVGAGWFGLRCNYRAHEA	0.252 ± 1.1
FSKAMNFRDRTSSQSQ	-0.581 ± 1.2
VTRTYLNRMRSMLSGSMFFM	0.423 ± 0.35
SAGHLNYNEWLNGCGDRGKC	-0.367 ± 0.53
KTRHMREDGQCVYKHEMERM	0.577 ± 0.19
YVILFVIVVGSA	0.654 ± 0.84
GIFNYWRYYMVDV	0.673 ± 0.29
GIPSKTFDVCSSPNIKSILF	0.317 ± 1.2
SFESVVIVLKLNALFPCVST	-0.048 ± 0.28
VRSFVHTWLDTTWA	-0.025 ± 0.36
YGHLVYTDHVWRRFETVKG	0.661 ± 0.84
RCLSQNYCLSLASRLEHMCI	0.572 ± 1.1
VIVWGSRSFLGC	3.49 ± 0.1
GHNINFGVDCGTVGRFCNTW	-0.54 ± 0.61
RLYWSCCDRVDTFLCVF	4.43 ± 0.099
VIKMFRRSDDIVVSKPLRE	-0.3 ± 0.5
YLVPELYEMSNS	1.38 ± 0.79
KVLTRPG	-0.213 ± 0.64

From the supplement of paper PMC12042874
